This is an account of results in PMC6707248, “hCINAP regulates the DNA-damage response and mediates the resistance of acute myelocytic leukemia cells to therapy” (Nature Communications, 2019).

This test has as its target T1, GST-NPM1 (unSUMOylated) (UniProt P06748 1-294).
T1 construct: Nucleophosmin (NPM1); also called GST-tagged NPM1; unSUMOylated GST-NPM1; source: E. coli, purified
Briefly: pull-down; in vitro GST pull-down; His-hCINAP and GST-NPM1 purified from E. coli; GST protein as negative control. The conditions noted are these: both partners purified.

T1 sequence (P06748 whole entry): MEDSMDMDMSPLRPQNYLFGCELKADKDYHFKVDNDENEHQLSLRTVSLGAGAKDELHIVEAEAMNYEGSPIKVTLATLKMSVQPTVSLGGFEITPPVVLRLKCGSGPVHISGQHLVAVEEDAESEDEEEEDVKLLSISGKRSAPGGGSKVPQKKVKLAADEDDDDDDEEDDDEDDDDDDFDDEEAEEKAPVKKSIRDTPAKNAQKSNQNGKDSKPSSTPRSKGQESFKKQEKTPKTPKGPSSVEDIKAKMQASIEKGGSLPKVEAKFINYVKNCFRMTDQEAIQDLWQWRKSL

B1: His-hCINAP (natural protein, human, UniProt Q9Y3D8 1-172, looked up)
chain: MLLPNILLTGTPGVGKTTLGKELASKSGLKYINVGDLAREEQLYDGYDEEYDCPILDEDRVVDELDNQMREGGVIVDYHGCDFFPERWFHIVFVLRTDTNVLYERLETRGYNEKKLTDNIQCEIFQVLYEEATASYKEEIVHQLPSNKPEELENNVDQILKWIEQWIKDHNS
notes: source: E. coli, purified
Take B1: the binding result is listed as “binds”.
